pKd: −log10 of the molar value.
Target: parental cyclophilin A (CypA) (rhesus macaque; identical in sequence to human CypA) (UniProt P62940)
Test: ITC

| Substance | pKd | dH [kcal/mol] |
| --- | --- | --- |
| HIV-1 N-terminal capsid (CA^N) domain (domain or fragment) | 5.30 | -6.05 |
| HIV-2 CA^N domain with CA Ala88 introduced (from UniProt P04590 136-279) (domain or fragment) | 5.10 |  |
